From patent US7727968B2, “Combination therapy for the treatment of acute leukemia and myelodysplastic syndrome” (priority 2002, dated 2010)
Structures can show the parent of a compound that is named as a salt.

Columns and labels:
[1] = test system: patients with relapsed, refractory, or de novo AML; test: Phase 1/2 study combining gemtuzumab ozogamicin with cytarabine and daunorubicin (Example 1); conditions: in the triple combination
Description: The maximum tolerated dose was determined to be cytarabine 100 mg/m^2/day by continuous infusion on days 1 through 7, daunorubicin 45 mg/m^2 by intravenous bolus on days 1 through 3, and gemtuzumab ozogamicin 6 mg/m^2 by 2-hour infusion on day 4.
A detailed safety and efficacy evaluation was performed on the first 19 patients treated with this combination induction regimen and subsequently followed for at least 28 days. There were sixteen men and three women enrolled with a median age of 46 years (range, 20 to 60). One, ten, and three patients were categorized in favorable-, intermediate- and poor-risk cytogenetic groups, respectively. Cytogenetic analysis was not available for five patients.

[2] = test system: adult acute nonlymphocytic leukemia; conditions: used as a single agent; cited from earlier work
[3] = test system: patients with poor prognosis AML; conditions: refractory AML; single dose GO 9 mg/m^2 three days prior to first pulse of chemotherapy; cited from earlier work
patients with AML = conditions: cited from earlier work
AML patients = test: UK safety study combining gemtuzumab ozogamicin with intensive chemotherapy before the MRC AML15 trial (Example 2); format: in vivo, human
Description: The feasibility of combining gemtuzumab ozogamicin with intensive chemotherapy for induction and/or consolidation was evaluated in 67 patients in a safety study in the United Kingdom prior to the start of the Medical Research […] AML15 trial. The aim was to combine gemtuzumab ozogamicin with chemotherapy planned in the trial, (DAT; Daunorubicin, AraC, Thioguanine, or DA; Daunorubicin AraC; or FLAG-IDA; Fludarabine, AraC, G-CSF, Idarubicin) as course 1. Course 1 was given using gemtuzumab ozogamicin in an amount of 3 mg/m^2 on day 1 of chemotherapy in 55 patients. Thirty-three patients received gemtuzumab ozogamicin with DAT. Eight patients received gemtuzumab ozogamicin with DA. Fourteen patients received gemtuzumab ozogamicin with FLAG-Ida. Of the 55 patients treated, 41 […] entered complete remission with course 1 broken down as follows: […] DAT=26/32; (2) DA=7/8; and (3) FLAG-Ida=8/8. Prior experience in a separate trial designated MRC AML12 where 720 patients were treated with H-DAT alone in course 1, 64% of those patients achieved complete remission. In the present study, the median time to ANC recovery (1×10^9/l) was 27 days (range 9-54) and platelets >100×10^9/l was 30 (range 21-48) which is within the mean+ISD of the 720 patients treated with H-DAT alone in the MRC AML12 trial. Non-hemopoietic toxicity was confined to the liver. Overall the maximum toxicity was Grade 1=5 patients, Grade 2=22 patients, Grade 3=13 patients and Grade 4=10 patients. Of the Grade 3 and 4 toxicities, 7 were felt to be definitely associated with gemtuzumab ozogamicin therapy. A possible contributory factor was the inclusion of Thioguanine. Of the 39 recipients where Thioguanine was included in the schedules, 22 developed Grade 3 or 4 liver toxicity compared with 1 for 16 recipients of non-Thioguanine schedules. […]
The overall survival of all patients receiving gemtuzumab ozogamicin in a dose of 3 mg/m^2 with course 1 at 6 months is 73% and at 12 months is 68%. For the patient receiving non-Thioguanine induction with 3 mg/m^2 of gemtuzumab ozogamicin, the 6 month survival is 91%.

[4] = test system: AML patients <60 years of age; conditions: cited from earlier work
[5] = GO 3 mg/m^2 with course 1 chemotherapy
[6] = all patients receiving GO 3 mg/m^2 with course 1

Molecule: Nc1ccn([C@@H]2O[C@H](CO)[C@@H](O)[C@@H]2O)c(=O)n1 [cytarabine, 4-amino-1-(beta)-D-arabinofuranosyl-2(1H)-pyrimidinone]
- maximum tolerated dose ([1]; continuous infusion days 1 through 7): 100 mg/m^2/day

Molecule: COc1cccc2c1C(=O)c1c(O)c3c(c(O)c1C2=O)C[C@@](O)(C(C)=O)C[C@@H]3O[C@H]1C[C@H](N)[C@H](O)[C@H](C)O1 [daunorubicin hydrochloride, (1 S,3 S)-3-Acetyl-1,2,3,4,6,11-hexahydro-3,5,12-trihydroxy-10-methoxy-6,11-dioxo-1-naphthacenyl 3-amino-2,3,6-trideoxy-(alpha)-L-lyxo-hexopyranoside hydrochloride]
- complete remission rates [2]: 40 to 50%

Molecule: COc1cccc2c1C(=O)c1c(O)c3c(c(O)c1C2=O)C[C@@](O)(C(C)=O)C[C@@H]3O[C@H]1C[C@H](N)[C@H](O)[C@H](C)O1 [daunorubicin, (8S-cis)-8-acetyl-10-[(3-amino-2,3,6-trideoxy-(alpha)-L-lyxo-hexopyranosyl)oxy]-7,8,9,10-tetrahydro-6,8,11-trihydroxy-1-methoxy-5,12-naphthacenedione hydrochloride]
- maximum tolerated dose ([1]; intravenous bolus days 1 through 3): 45 mg/m^2

Molecule: gemtuzumab ozogamicin: recombinant humanized IgG4, kappa anti-CD33 antibody conjugated with N-acetyl-gamma calicheamicin via a bifunctional linker
- patients entering complete remission [3]: two of four
- increased risk of developing significant hepatotoxicity (patients with AML; patients who did not undergo stem cell transplantation): ≤ 10%
- response rate (patients with AML; patients with relapsed AML): < 40%
- feasibility (AML patients; GO 3 mg/m^2 in course 1 and GO 3 mg/m^2 in course 3, twelve patients): appears to be feasible
- complete remission with course 1 (AML patients; GO 3 mg/m^2 on day 1 of chemotherapy (DAT, DA or FLAG-Ida), 41 of 55 patients treated): 85%
- Grade 3 and 4 toxicities felt to be definitely associated with gemtuzumab ozogamicin therapy (AML patients; [5]): 7
- maximum liver toxicity Grade 1 (AML patients; [5]): 5 patients
- maximum liver toxicity Grade 2 (AML patients; [5]): 22 patients
- maximum liver toxicity Grade 3 (AML patients; [5]): 13 patients
- maximum liver toxicity Grade 4 (AML patients; [5]): 10 patients
- median time to ANC recovery (1×10^9/l) (AML patients; GO 3 mg/m^2 with course 1 chemotherapy, range 9-54): 27 days
- median time to platelets >100×10^9/l (AML patients; GO 3 mg/m^2 with course 1 chemotherapy, range 21-48): 30 days
- recipients developing Grade 3 or 4 liver toxicity (AML patients; Thioguanine included in the schedules, 39 recipients): 22
- overall survival at 6 months (AML patients; [6]): 73%
- overall survival at 12 months (AML patients; [6]): 68%
- 6 month survival (AML patients; non-Thioguanine induction with GO 3 mg/m^2): 91%
- recipients developing Grade 3 or 4 liver toxicity (AML patients; non-Thioguanine schedules, 16 recipients): 1
- liver toxicity ([4]; GO 6 mg/m^2 dose with H-DAT or S-DAT): increased liver toxicity
- toxicity in patients receiving GO in courses 1 and 2 ([4]; with H-DAT or S-DAT induction, one patient died): delayed hematological recovery and VOD
- maximum tolerated dose ([1]; 2-hour infusion on day 4): 6 mg/m^2
